Measurements as given in paper PMC4840434, “The interactome of Streptococcus pneumoniae and its bacteriophages show highly specific patterns of interactions among bacteria and their phages” (Scientific Reports, 2016).

Experiments:
Assay in all cases: pull-down; LuMPIS: N-terminally MBP-tagged bait pulled down on amylose beads, N-terminally eGFP-luciferase-tagged prey detected by luciferase activity; both expressed in HEK cells, raw protein extracts; quadruplicates; LIR against MBP without ORF
[1] = target: Cp-1 orf17, Tail protein N (LuMPIS construct) (phage Cp-1 of S. pneumoniae)
[2] = target: Cp-1 orfc, Hypothetical protein (LuMPIS construct) (phage Cp-1 of S. pneumoniae)
[3] = target: Dp-1 orf4, Queuosine biosynth. protein QueE (LuMPIS construct) (phage Dp-1 of S. pneumoniae)
[4] = target: Cp-1 orfb, Hypothetical protein (LuMPIS construct) (phage Cp-1 of S. pneumoniae)
[5] = target: Dp-1 orf29, Hypothetical protein (LuMPIS construct) (phage Dp-1 of S. pneumoniae)
[6] = target: Dp-1 orf31, Hypothetical protein (LuMPIS construct) (phage Dp-1 of S. pneumoniae)
[7] = target: Dp-1 orf48, Hypothetical protein (LuMPIS construct) (phage Dp-1 of S. pneumoniae)
[8] = target: Dp-1 orf9, No similarity (LuMPIS construct) (phage Dp-1 of S. pneumoniae)
[9] = target: Dp-1 orf32, Hypothetical protein (LuMPIS construct) (phage Dp-1 of S. pneumoniae)
[10] = target: Dp-1 orf58, Holin (LuMPIS construct) (phage Dp-1 of S. pneumoniae)
[11] = target: Dp-1 orf44, Rho-like domain lipoprotein (LuMPIS construct) (phage Dp-1 of S. pneumoniae)
[12] = target: Dp-1 orf34, Hypothetical protein (LuMPIS construct) (phage Dp-1 of S. pneumoniae)
[13] = target: Dp-1 orf14, dUTPase (LuMPIS construct) (phage Dp-1 of S. pneumoniae)
[14] = target: Cp-1 orf6, Hypothetical protein (LuMPIS construct) (phage Cp-1 of S. pneumoniae)
[15] = target: Cp-1 orf10, Connector protein (LuMPIS construct) (phage Cp-1 of S. pneumoniae)
[16] = target: Dp-1 orf18, DNA polymerase III, delta’ subunit HolB (LuMPIS construct) (phage Dp-1 of S. pneumoniae)

## SP_0979, oligoendopeptidase F (LuMPIS construct) (natural protein)
[1]
  LIR (luminescence intensity ratio against MBP alone): 14
[2]
  LIR (luminescence intensity ratio against MBP alone): 3

## SP_2036, PTS system, IIA component (LuMPIS construct) (from UniProt A0A0H2URW0 1-161) (natural protein)
[3]
  LIR (luminescence intensity ratio against MBP alone): 454

## SP_1213, conserved domain protein (LuMPIS construct) (from UniProt A0A0H2UQB9 1-424) (natural protein)
[4]
  LIR (luminescence intensity ratio against MBP alone): 240

## SP_2012, glyceraldehyde 3-phosphate dehydrogenase (LuMPIS construct) (natural protein)
[5]
  LIR (luminescence intensity ratio against MBP alone): 3

## SP_2168, putative fucose operon repressor (LuMPIS construct) (from UniProt A0A0H2USI3 1-257) (natural protein)
[6]
  LIR (luminescence intensity ratio against MBP alone): 5
[7]
  LIR (luminescence intensity ratio against MBP alone): 3
[8]
  LIR (luminescence intensity ratio against MBP alone): 15

## SP_1153, hypothetical protein (LuMPIS construct) (from UniProt A0A0H2UQ84 1-392) (natural protein)
[6]
  LIR (luminescence intensity ratio against MBP alone): 6

## SP_1669, MutT/nudix family protein (LuMPIS construct) (from UniProt A0A0H2URA0 1-203) (natural protein)
[9]
  LIR (luminescence intensity ratio against MBP alone): 10

## SP_1751, putative transporter, CorA family (LuMPIS construct) (from UniProt A0A0H2UR86 1-302) (natural protein)
[10]
  LIR (luminescence intensity ratio against MBP alone): 5

## SP_1725, sucrose operon repressor (LuMPIS construct) (natural protein)
[11]
  LIR (luminescence intensity ratio against MBP alone): 3

## SP_1915, hypothetical protein (LuMPIS construct) (from UniProt A0A0H2URK9 1-149) (natural protein)
[9]
  LIR (luminescence intensity ratio against MBP alone): 5

## SP_1395, putative phosphate transport system regulatory protein PhoU (LuMPIS construct) (from UniProt A0A0H2UQU1 1-217) (natural protein)
[8]
  LIR (luminescence intensity ratio against MBP alone): 23

## SP_1504, TPR domain protein (LuMPIS construct) (from UniProt A0A0H2UQR2 1-403) (natural protein)
[8]
  LIR (luminescence intensity ratio against MBP alone): 19

## SP_1536, conserved hypothetical protein (LuMPIS construct) (from UniProt A0A0H2UQS7 1-249) (natural protein)
[11]
  LIR (luminescence intensity ratio against MBP alone): 10

## SP_1746, conserved hypothetical protein (LuMPIS construct) (from UniProt A0A0H2URF8 1-197) (natural protein)
[7]
  LIR (luminescence intensity ratio against MBP alone): 3

## SP_1575, conserved hypothetical protein (LuMPIS construct) (from UniProt A0A0H2UQU9 1-225) (natural protein)
[11]
  LIR (luminescence intensity ratio against MBP alone): 14

## SP_0446, acetolactate synthase, small subunit (LuMPIS construct) (natural protein)
[12]
  LIR (luminescence intensity ratio against MBP alone): 12
[11]
  LIR (luminescence intensity ratio against MBP alone): 6

## SP_1731, conserved hypothetical protein (LuMPIS construct) (from UniProt A0A0H2UR87 1-252) (natural protein)
[10]
  LIR (luminescence intensity ratio against MBP alone): 3

## SP_2157, alcohol dehydrogenase, iron-containing (LuMPIS construct) (from UniProt A0A0H2USH2 1-383) (natural protein)
[12]
  LIR (luminescence intensity ratio against MBP alone): 35
[11]
  LIR (luminescence intensity ratio against MBP alone): 13

## SP_2125, conserved hypothetical protein (LuMPIS construct) (from UniProt A0A0H2URY4 1-113) (natural protein)
[13]
  LIR (luminescence intensity ratio against MBP alone): 45

B1: SP_1713, transcriptional regulator, NrdR family (LuMPIS construct) (natural protein)
chain: MRCPKCGATKSSVIDSRQAEEGNTIRRRRECDECQHRFTTYERVEERTLVVVKKDGTREQFSRDKIFNGIIRSAQKRPVSSDEINMVVNRIEQKLRGRNENEIQSEDIGSLVMEELAELDEITYVRFASVYRSFKDVSELESLLQQITQSSKKKKER
[14]
  LIR (luminescence intensity ratio against MBP alone): 6

B2: SP_1354, ribosomal protein L7/L12 (LuMPIS construct) (natural protein)
chain: MALNIENIIAEIKEASILELNDLVKAIEEEFGVTAAAPVAVAAADAADAGAAKDSFDVELTSAGDKKVGVIKVVREITGLGLKEAKELVDGAPALVKEGVATAEAEEIKAKLEEAGASVTLK
[15]
  LIR (luminescence intensity ratio against MBP alone): 12

B3: SP_1881, glutamate racemase (LuMPIS construct) (natural protein)
chain: MDNRPIGFLDSGVGGLTVVRELMRQLPHEEIVYIGDSARAPYGPRPAEQIREYTWQLVNFLLTKDVKMIVIACNTATAVVWEEIKAQLDIPVLGVILPGASAAIKSSQGGKIGVIGTPMTVQSDIYRQKIHDLDPDLQVESLACPKFAPLVESGALSTSVTKKVVYETLRPLVGKVDSLILGCTHYPLLRPIIQNVMGPKVQLIDSGAECVRDISVLLNYFEINRGRDAGPLHHRFYTTASSQSFAQIGEEWLEKEIHVEHVEL
[15]
  LIR (luminescence intensity ratio against MBP alone): 6

B4: SP_1584, GTP-sensing transcriptional pleiotropic repressor CodY (LuMPIS construct) (natural protein)
chain: MAHLLEKTRKITSILKRSEEQLQDELPYNAITRQLADIIHCNACIINSKGRLLGYFMRYKTNTDRVEQFFQTKIFPDDYVQGANMIYETEANLPVEHDMSIFPIESRDDFPDGLTTIAPIHVSGIRLGSLIIWRNDKKFEDEDLVLVEIASTVVGIQLLNFQREEDEKNIRRRTAVTMAVNTLSYSELRAVSAILGELNGNEGKLTASVIADRIGITRSVIVNALRKLESAGIIESRSLGMKGTYLKVLISDIFEEVKKRDY
[16]
  LIR (luminescence intensity ratio against MBP alone): 6

B5: SP_0194, conserved hypothetical protein (LuMPIS construct) (natural protein)
chain: MSHDHNHDHEERELITLVDEQGNETLFEILLTIDGKEEFGKNYVLLVPVNAEEDEDGQVEIQAYSFIENEDGTEGELQPIPEDSEDEWNMIEEVFNSFMEE
[9]
  LIR (luminescence intensity ratio against MBP alone): 5

B6: SP_1540, single-strand binding protein Ssb (LuMPIS construct) (natural protein)
chain: MINNVVLVGRMTRDAELRYTPSNVAVATFTLAVNRTFKSQNGEREADFINVVMWRQQAENLANWAKKGSLIGVTGRIQTRSYDNQQGQRVYVTEVVAENFQMLESRSVREGHTGGAYSAPTANYSAPTNSVPDFSRNENPFGATNPLDISDDDLPF
[9]
  LIR (luminescence intensity ratio against MBP alone): 3
